Test results reported in patent publication US20230364234A1.

Tests used:
[1] = biological target: CD4-10-17b CAR with an inserted myc epitope, expressed on cells transduced with the SFFV/CAR-T-myc/GFP lentivirus (human) (UniProt P01730); test: flow cytometry, primary human T cells transduced with SFFV/CAR-T-myc/GFP, gated CD4+GFP+
[2] = biological target: CD4-10-17b CAR with an inserted myc epitope, expressed on cells transduced with the SFFV/CAR-T-myc/GFP lentivirus (human) (UniProt P01730); test: flow cytometry, primary human T cells transduced with SFFV/CAR-T-myc/GFP, gated CD8+GFP+
[3] = biological target: CD4-10-17b CAR with an inserted myc epitope, expressed on cells transduced with the SFFV/CAR-T-myc/GFP lentivirus (human) (UniProt P01730); test: cell-based or functional assay

Work on 9E10 anti-myc epitope antibody yielded a percent of transduced CD4+ T cells bound [1] of 35%, a percent of transduced CD8+ T cells bound [2] of 25% and an IFN-γ production by CD4+ GFP+ T cells (flow cytometry, overnight stimulation) [3] of 3 fold.
